Measured values as given in patent US20250206841A1 (ADEPT THERAPEUTICS, published 2025).

T1: cynomolgus Trop-2-His protein (cynomolgus, UniProt P09758 27-274 (human entry))
T1 construct: also called cynmolgus Trop-His; Kactus Cat #TRP-CM121; not shown: His tag
T1 chain: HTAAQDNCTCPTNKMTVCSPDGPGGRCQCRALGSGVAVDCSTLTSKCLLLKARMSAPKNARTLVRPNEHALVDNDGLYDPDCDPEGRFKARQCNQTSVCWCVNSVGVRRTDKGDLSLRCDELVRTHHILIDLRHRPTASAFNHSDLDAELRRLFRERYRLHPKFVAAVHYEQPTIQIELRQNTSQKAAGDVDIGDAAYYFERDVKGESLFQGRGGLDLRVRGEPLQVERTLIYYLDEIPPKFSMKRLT


Target: T1, cynomolgus Trop-2-His protein
Test: BLI (Gator Prime), LEM supernatant Ab on HFC probe
In short: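 Antibodies from LEM transfection supernatants were diluted 1:1 in K buffer and captured on HFC probes. Association and dissociation of human or cynomolgus Trop-2-His were then followed by BLI, with blank reference subtraction and affinity from kinetic fitting. Sacituzumab govitecan at 1 μg/ml served as positive control.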

Binder | Kd [nM] | koff [s⁻¹] | kon [M⁻¹ s⁻¹]
9D7 (antibody, V domains shown, Rabbit-derived clone; LEM construct: VH + rabbit IgG CH1 + human IgG1 CH2-CH3) VH: QSLEESGGDLVQPGASLTLTCKASGFDLNNYSILWVRQAPGKGLEWIGCIYISGGSTYYANWAKGRFAISKTSSTTVTLQMTSLTAADTATYFCARDDGTASYYLNLWGPGTLVTVSS VL: YDMTQTPASVSEPVGGTVTIKCQASEDIYKLLAWYQQKPGQPPKLLIYAASDLESGVPSRFKGRGSGTDYTLTISDLECADAATYYCQQAYTIGNIDNSFGGGTEVVVK | 0.117 | 3.9e-05 | 528000
10A9 (antibody, V domains shown, Rabbit-derived clone; LEM construct: VH + rabbit IgG CH1 + human IgG1 CH2-CH3) VH: QSLEESGGDLVQPGASLTLTCKASGFDLNNYAMLWVRQAPGKGLEWIGCIYISGGTTYFASWATGRFAISKTSSTTVTLQMTSLTAADTATYFCARDDGTTSYYLNLWGPGTLVTVSS VL: YDMTQTPASVSAAVGGTVTIKCQASEDIYSLLAWYQQKPGQPPKLLIYGASNLESGVPSRFKGSGSGTEYTLTISDLECDDAATYYCQQAYTIGNIDNAFGGGTEVVVK | 0.108 | 5.3e-05 | 569000
1D10 (antibody, V domains shown, Rabbit-derived clone; LEM construct: VH + rabbit IgG CH1 + human IgG1 CH2-CH3) VH: QEQLKESGGGLVQPGGSLTLSCKASGFDFNYYGVSWVRQAPGKGLEWIGYIYPAYHNTYYATWVNGRFTISSHNAQNTLYLQLNTLTAADTATYFCARDAGSTDYNLNLWGPGTLVTVSS VL: DVVMTQTPASVEVAVGGTVTIKCQASEDIESYLAWYQQKPGQPPRLLIYEASKLASGVSSRFSGGGYGTDFTLTISGVECADAATYYCHQALTIGNVDNPFGGGGEVVVK | 0.361 | 0.00027 | 688000
74F11/15F5 (antibody, human IgG1, V domains shown, LEM construct: VH + rabbit IgG CH1 + human IgG1 CH2-CH3) VH: QEQLKESGGGLVQPGGSLKLSCKASGFDFNNYGMSWVRQAPGKGLEWIAYIYPAFHNTYYANWVNGRFTISSDNAQNTVDLQLNSLTAADTATYFCARDAGSTDYNFNLWGPGTLVTVSS VL: DVVMTQTPASVEAAVGGTVTIKCQASEDIERYLAWYQQKPGQPPKLLIYEASKLPSGVSSRFSGSGYGTEFTLTISGVECADAATYYCQQALTIGYVDNPFGGGSEVVVK | 0.264 | 0.00017 | 758000
65D5 (antibody, V domains shown, Rabbit-derived clone; LEM construct: VH + rabbit IgG CH1 + human IgG1 CH2-CH3) VH: QEQLKESGGGLVQPGGSLKLSCKASGFDFNAYGVSWVRQAPGKGLEWIAYIYPAFHNTYYATWVNGRFTISSHNAQNTLYLQLNTLTAADTATYFCARDAGTTDYNFNLWGPGTLVTVSS VL: DIVMTQTPASVSEPVGGTVTIKCQASQSISSYLAWYQQKPGQPPKLLIYEATKLTSGVSSRFSGSGYGTEFTLTISGVECADAATYYCQQALTVGDVDNPFGGGSEVVVK | 0.628 | 0.00061 | 972000
66A1 (antibody, V domains shown, Rabbit-derived clone; LEM construct: VH + rabbit IgG CH1 + human IgG1 CH2-CH3) VH: QEQLKESGGGLVQPGGSLKLSCKASGFDFNNYGVSWVRQAPGKGLEWIAYIYPAFHNTYYASWVNGRFTISSHNAQNTLYLQLNSLTAADTATYFCARDAGGTDYAYNLWGPGTLVTVSS VL: DVVMTQTPASVEAAVGGTVSINCQASEDIESYLAWYQQKPGQPPKLLIYKASTLASGVSSRFKGSGSGKQFTLTISGVECADAATYYCQQVLTIGNVDNPFGGGSEVVVK | 0.367 | 0.00032 | 869000
72F12 (antibody, V domains shown, Rabbit-derived clone; LEM construct: VH + rabbit IgG CH1 + human IgG1 CH2-CH3) VH: QEQLKESGGGLVQPGGSLKLSCKASGFDFNNYGVSWVRQAPGKGLEWIAYIYPAFHNTYYATWVNGRFTISSHNAQNTLYLQLNSLTAADTATYFCARDAGSVDYNFNLWGPGTLVTVSS VL: DVVMTQTPASVEVAVGGTVTIKCQASKNIDSNLAWYQQKPGQPPKQLIYAASTLASGVSSRFSGSGYGAEFTLTISGVECADAATYYCQQALTIGNVDNPFGGGSEVVVK | 0.526 | 0.00047 | 898000
63H3 (antibody, V domains shown, Rabbit-derived clone; LEM construct: VH + rabbit IgG CH1 + human IgG1 CH2-CH3) VH: QEQLKESGGGLVQPGGSLKLSCKASGFDFNSYGVSWVRQAPGKGLEWIAYIYPAFHNAYYANWVNGRFTISSDNAQNTVDLQLNSLTAADTATYFCARDAGGTDYNYNLWGPGTLVTVSS VL: DVVMTQTPASVEVAVGGTVTLKCQASEDIESYSAWYQQKPGQPPNLLIYEASKLASGVSSRFSGSGYGTEFTLTISGVECADAATYYCQQALTIGNVDNPFGGGSEVVVR | 0.218 | 0.00016 | 740000
62E3 (antibody, V domains shown, Rabbit-derived clone; LEM construct: VH + rabbit IgG CH1 + human IgG1 CH2-CH3) VH: QEQLKESGGGLVQPGGSLKLSCKASGFDFNEYGVSWVRQAPGKGLEWIAYIYPAFHNTYYATWVNGRFTISSHNAQNTLYLQLNTLTAADTATYFCARDAGTTDYNFNLWGPGTLVTVSS VL: DVVMTQTASPVSAAVGGTVTIKCQASEDIESYLAWYQQKPGQPPKLLIYEASKLASGVSSRFSGSGYGTEFTLTISGVECADAATYYCQQALTIGNVDNPFGGGSEVVVK | 0.685 | 0.00045 | 651000
9F7 (antibody, V domains shown, Rabbit-derived clone; LEM construct: VH + rabbit IgG CH1 + human IgG1 CH2-CH3) VH: QEQLKESGGGLVQPGGSLTLSCKASGFDFNNYGVSWVRQAPGKGLEWIGYIYPAYHNTYYATWVNGRFTISSHNAQNTLYLQLNTLTAADTATYFCARDTGSTDYNFNLWGPGTLVTVSS VL: DVVMTQTPASVEVAVGGTVTIKCQASEDIESYLAWYQQKPGQPPKLLIYEASKLASGVSSRFSGGGYGTEFTLTISGVECADAATYYCQQALTVGNVDNPFGGGSEVVVK | 0.145 | ~0.000112 | 774000
5D4 (antibody, V domains shown, Rabbit-derived clone; LEM construct: VH + rabbit IgG CH1 + human IgG1 CH2-CH3) VH: QQLEESGGGLVKPEGSLTLTCKGSGFDFSGTYWMWWVRQAPGKGLEWIACIYVGSGSSTYYASWAKGRFTISSTSSTAVTLQATSLTAADTATYFCARGATNNVFMNYFNLWGPGTLVTVSS VL: FEMTQTPSSVSEPVGGTVTIKCQASEDISSNLGWYQQKPGQPPKLLIYGASTLASGVPSRFKGSGSGTEFTLTISDLECADAATYYCQTSYYIDDGVNGFGGGTEVVVK | 0.256 | 0.0001 | 577000
